B1: CM0126 (Dia-Fc-Dia) (bispecific antibody)
chain 1: MNLLLILTFVAAAVAEFEVQLVESGGGLVQPGGSLRLSCAASGFNIHSSSIHWVRQAPGKGLEWVAATYSSFGSITYADSVKGRFTISADTSKNTAYLQMNSLRAEDTAVYYCARYHHPFGYALDYWGQGTLVTVSSGGGGSDIQMTQSPSSLSASVGDRVTITCRASQSVSSAVAWYQQKPGKAPKLLIYSASSLYSGVPSRFSGSRSGTDFTLTISSLQPEDFATYYCQQGVYLFTFGQGTKVEIKLEDKTHTKVEPKSSDKTHNCPPCPAPELLGGPSVFLFPPKPKDTLMISRTPEVTCVVVDVSHEDPEVKFNWYVDGVEVHNAKTKPREEQYNSTYRVVSVLTVLHQDWLNGKEYKCKVSNKALPAPIEKTISKAKGQPREPQVYTLPPIRELMTSNQVSLSCAVKGFYPSDIAVEWESNGQPENNYKTTPPVLDSDGSFFLVSKLTVDKSRWQQGNVFSCSVMHEALHNHYTQKSLSLSPGKSGSETPGTSESATPESGGGEVQLVESGGGLVQPGGSLRLSCAASGFNISSYYIHWVRQAPGKGLEWVASIYSSYGYTSYADSVKGRFTISADTSKNTAYLQMNSLRAEDTAVYYCARTVRGSKKPYFSGWAMDYWGQGTLVTVSSGGGGSDIQMTQSPSSLSASVGDRVTITCRASQSVSSAVAWYQQKPGKAPKLLIYSASSLYSGVPSRFSGSRSGTDFTLTISSLQPEDFATYYCQQYSWGPFTFGQGTKVEIK
chain 2: MNLLLILTFVAAAVAEFEVQLVESGGGLVQPGGSLRLSCAASGFNIHSSSIHWVRQAPGKGLEWVAATYSSFGSITYADSVKGRFTISADTSKNTAYLQMNSLRAEDTAVYYCARYHHPFGYALDYWGQGTLVTVSSGGGGSDIQMTQSPSSLSASVGDRVTITCRASQSVSSAVAWYQQKPGKAPKLLIYSASSLYSGVPSRFSGSRSGTDFTLTISSLQPEDFATYYCQQGVYLFTFGQGTKVEIKLEDKTHTKVEPKTSDKTHTCPPCPAPELLGGPSVFLFPPKPKDTLMISRTPEVTCVVVDVSHEDPEVKFNWYVDGVEVHNAKTKPREEQYNSTYRVVSVLTVLHQDWLNGKEYKCKVSNKALPAPIEKTISKAKGQPREPMVFDLPPSREEMTKNQVSLWCMVKGFYPSDIAVEWESNGQPENNYKTTPPVLDSDGSFFLYSKLTVDKSRWQQGNVFSCSVMHEALHNHYTQKSLSLSPGKSGSETPGTSESATPESGGGEVQLVESGGGLVQPGGSLRLSCAASGFNISYSSIHWVRQAPGKGLEWVAYISSYYGYTYYADSVKGRFTISADTSKNTAYLQMNSLRAEDTAVYYCARAHYFPWAGAMDYWGQGTLVTVSSGGGGSDIQMTQSPSSLSASVGDRVTITCRASQSVSSAVAWYQQKPGKAPKLLIYSASSLYSGVPSRFSGSRSGTDFTLTISSLQPEDFATYYCQQYYWPITFGQGTKVEIK
B2: CT0001 (bispecific antibody)
heavy 1: EVQLVESGGGLVQPGGSLRLSCAASGFNIHSSSIHWVRQAPGKGLEWVAATYSSFGSITYADSVKGRFTISADTSKNTAYLQMNSLRAEDTAVYYCARYHHPFGYALDYWGQGTLVTVSSASTKGPSVFPLAPSSKSTSGGTAALGCLVKDYFPEPVTVSWNSGALTSGVHTFPAVLQSSGLYSLSSVVTVPSSSLGTQTYICNVNHKPSNTKVDKKVEPKSCDKTHTCPPCPAPELLGGPSVFLFPPKPKDTLMISRTPEVTCVVVDVSHEDPEVKFNWYVDGVEVHNAKTKPREEQYNSTYRVVSVLTVLHQDWLNGKEYKCKVSNKALPAPIEKTISKAKGQPREPQVYTLPPIRELMTSNQVSLSCAVKGFYPSDIAVEWESNGQPENNYKTTPPVLDSDGSFFLVSKLTVDKSRWQQGNVFSCSVMHEALHNHYTQKSLSLSPGKSGSETPGTSESATPESGGGEVQLVESGGGLVQPGGSLRLSCAASGFNISSYYIHWVRQAPGKGLEWVASIYSSYGYTSYADSVKGRFTISADTSKNTAYLQMNSLRAEDTAVYYCARTVRGSKKPYFSGWAMDYWGQGTLVTVSSGGGGSDIQMTQSPSSLSASVGDRVTITCRASQSVSSAVAWYQQKPGKAPKLLIYSASSLYSGVPSRFSGSRSGTDFTLTISSLQPEDFATYYCQQYSWGPFTFGQGTKVEIK
heavy 2: EVQLVESGGGLVQPGGSLRLSCAASGFNIHSSSIHWVRQAPGKGLEWVAATYSSFGSITYADSVKGRFTISADTSKNTAYLQMNSLRAEDTAVYYCARYHHPFGYALDYWGQGTLVTVSSASTKGPSVFPLAPSSKSTSGGTAALGCLVKDYFPEPVTVSWNSGALTSGVHTFPAVLQSSGLYSLSSVVTVPSSSLGTQTYICNVNHKPSNTKVDKKVEPKSCDKTHTCPPCPAPELLGGPSVFLFPPKPKDTLMISRTPEVTCVVVDVSHEDPEVKFNWYVDGVEVHNAKTKPREEQYNSTYRVVSVLTVLHQDWLNGKEYKCKVSNKALPAPIEKTISKAKGQPREPMVFDLPPSREEMTKNQVSLWCMVKGFYPSDIAVEWESNGQPENNYKTTPPVLDSDGSFFLYSKLTVDKSRWQQGNVFSCSVMHEALHNHYTQKSLSLSPGKSGSETPGTSESATPESGGGEVQLVESGGGLVQPGGSLRLSCAASGFNISYSSIHWVRQAPGKGLEWVAYISSYYGYTYYADSVKGRFTISADTSKNTAYLQMNSLRAEDTAVYYCARAHYFPWAGAMDYWGQGTLVTVSSGGGGSDIQMTQSPSSLSASVGDRVTITCRASQSVSSAVAWYQQKPGKAPKLLIYSASSLYSGVPSRFSGSRSGTDFTLTISSLQPEDFATYYCQQYYWPITFGQGTKVEIK
light: DIQMTQSPSSLSASVGDRVTITCRASQSVSSAVAWYQQKPGKAPKLLIYSASSLYSGVPSRFSGSRSGTDFTLTISSLQPEDFATYYCQQGVYLFTFGQGTKVEIKRTVAAPSVFIFPPSDEQLKSGTASVVCLLNNFYPREAKVQWKVDNALQSGNSQESVTEQDSKDSTYSLSSTLTLSKADYEKHKVYACEVTHQGLSSPVTKSFNRGEC
B3: ANT-1 (bispecific antibody)
heavy 1: MNLLLILTFVAAAVAEFEVQLVESGGGLVQPGGSLRLSCAASGFNISSYYIHWVRQAPGKGLEWVASIYSSYGYTSYADSVKGRFTISADTSKNTAYLQMNSLRAEDTAVYYCARTVRGSKKPYFSGWAMDYWGQGTLVTVSSGGGGSDIQMTQSPSSLSASVGDRVTITCRASQSVSSAVAWYQQKPGKAPKLLIYSASSLYSGVPSRFSGSRSGTDFTLTISSLQPEDFATYYCQQYYFLITFGQGTKVEIKLEDKTHTKVEPKSSDKTHNCPPCPAPELLGGPSVFLFPPKPKDTLMISRTPEVTCVVVDVSHEDPEVKFNWYVDGVEVHNAKTKPREEQYNSTYRVVSVLTVLHQDWLNGKEYKCKVSNKALPAPIEKTISKAKGQPREPQVYTLPPIRELMTSNQVSLSCAVKGFYPSDIAVEWESNGQPENNYKTTPPVLDSDGSFFLVSKLTVDKSRWQQGNVFSCSVMHEALHNHYTQKSLSLSPGKSGSETPGTSESATPESGGGEVQLVESGGGLVQPGGSLRLSCAASGFNIHSSSIHWVRQAPGKGLEWVAATYSSFGSITYADSVKGRFTISADTSKNTAYLQMNSLRAEDTAVYYCARYHHPFGYALDYWGQGTLVTVSSASTKGPSVFPLAPSSKSTSGGTAALGCLVKDYFPEPVTVSWNSGALTSGVHTFPAVLQSSGLYSLSSVVTVPSSSLGTQTYICNVNHKPSNTKVDKKVEPKSCDKTHT
heavy 2: MNLLLILTFVAAAVAEFEVQLVESGGGLVQPGGSLRLSCAASGFNISYSSIHWVRQAPGKGLEWVASISPYYGYTYYADSVKGRFTISADTSKNTAYLQMNSLRAEDTAVYYCARSSYFPWFSAMDYWGQGTLVTVSSGGGGSDIQMTQSPSSLSASVGDRVTITCRASQSVSSAVAWYQQKPGKAPKLLIYSASSLYSGVPSRFSGSRSGTDFTLTISSLQPEDFATYYCQQYYWPITFGQGTKVEIKLEDKTHTKVEPKTSDKTHTCPPCPAPELLGGPSVFLFPPKPKDTLMISRTPEVTCVVVDVSHEDPEVKFNWYVDGVEVHNAKTKPREEQYNSTYRVVSVLTVLHQDWLNGKEYKCKVSNKALPAPIEKTISKAKGQPREPMVFDLPPSREEMTKNQVSLWCMVKGFYPSDIAVEWESNGQPENNYKTTPPVLDSDGSFFLYSKLTVDKSRWQQGNVFSCSVMHEALHNHYTQKSLSLSPGKSGSETPGTSESATPESGGGEVQLVESGGGLVQPGGSLRLSCAASGFNIHSSSIHWVRQAPGKGLEWVAATYSSFGSITYADSVKGRFTISADTSKNTAYLQMNSLRAEDTAVYYCARYHHPFGYALDYWGQGTLVTVSSASTKGPSVFPLAPSSKSTSGGTAALGCLVKDYFPEPVTVSWNSGALTSGVHTFPAVLQSSGLYSLSSVVTVPSSSLGTQTYICNVNHKPSNTKVDKKVEPKSCDKTHT
light: DIQMTQSPSSLSASVGDRVTITCRASQSVSSAVAWYQQKPGKAPKLLIYSASSLYSGVPSRFSGSRSGTDFTLTISSLQPEDFATYYCQQGVYLFTFGQGTKVEIKRTVAAPSVFIFPPSDEQLKSGTASVVCLLNNFYPREAKVQWKVDNALQSGNSQESVTEQDSKDSTYSLSSTLTLSKADYEKHKVYACEVTHQGLSSPVTKSFNRGEC

This assay addresses FZD1/2/4/5/7/8. The experiment in a line: cell-based or functional assay.
B1 came in with a % Wnt Maxima Avg of 52%; an EC50 (nM), TOPFLASH assay of 0.3 nM; a Maximal Signal (% Wnt3a maxima) (% Wnt3a maxima) of 52; a Topflash EC50 (nM) Avg of 0.3 nM.
As to B2, the % Wnt Maxima Avg was 57%; the EC50 (nM), TOPFLASH assay worked out at 0.3 nM; the Maximal Signal (% Wnt3a maxima) (% Wnt3a maxima) is 57; the Topflash EC50 (nM) Avg is 0.3 nM.
On to B3, for which the % Wnt Maxima Avg stood at 49%; the EC50 (nM), TOPFLASH assay is 0.7 nM; the Maximal Signal (% Wnt3a maxima) (% Wnt3a maxima) came out at 50; the Topflash EC50 (nM) Avg was determined as 0.7 nM.

Values taken from patent publication US20250270332A1.
